Assay results taken from article PMC11199487, “Hub stability in the calcium calmodulin-dependent protein kinase II” (Communications Biology, 2024).
Values joined by “and” are separate entries in the source; they are usually repeats but may differ in a detail not shown here. Identical values can stand only once.

Columns and labels:
[1] = molecular target: the molecule itself; assay: cryo-EM structure; isolated Venus-tagged hubs, 20 mg/mL, flash-frozen stocks thawed on ice, grids plunge-frozen at 4 °C and 100% humidity; self-assembly of the association domains
[2] = molecular target: the molecule itself; assay: SEC; EnRich SEC 650 column, 50 mM Tris, 150 mM KCl, 0.2 mM TCEP, 2% glycerol, pH 8.0, room temperature, thawed stocks applied without dilution, 250 μL, 1 mL/min
[3] = molecular target: the molecule itself; assay: cryo-EM structure; Venus-tagged β holoenzyme sample, 20 mg/mL, fresh rather than flash-frozen preparation, grids plunge-frozen at 4 °C and 100% humidity; only the hub resolved

Protein | stoichiometry N [1] | further results
CaMKIIβ hub (6His-V15-rCaMKIIβ hub construct) (domain or fragment, rat, rat CaMKII beta association domain (AD); made from the holoenzyme construct by removal of the kinase domain; also called isolated β hub; native β; source: E. coli BL21/Rosetta, co-transformed with a protein phosphatase plasmid, purified (nickel Hi-Trap); not shown: Venus, N-terminal, kept) ARKQEIIKTTEQLIEAVNNGDFEAYAKICDPGLTSFEPEALGNLVEGMDFHRFYFENLLAKNSKPIHTTILNPHVHVIGEDAACIAYIRLTQYIDGQGRPRTSQSEETRVWHRPDGKWQNVHFHCSGAPVAPLQ | 12 and 14 | –
CaMKIIβ hub F458A (domain or fragment, rat, rat CaMKII beta association domain (AD) with F458A; as m2 with the substitution; The methods describe F458A mutagenesis only of 6His-V15-rCaMKIIβ (the holoenzyme construct); The results say that F458A disassembles isolated β hubs; also called βF458A (isolated hub); source: E. coli BL21/Rosetta, co-transformed with a protein phosphatase plasmid, purified (nickel Hi-Trap); not shown: Venus, …) ARKQEIIKTTEQLIEAVNNGDFEAYAKICDPGLTSFEPEALGNLVEGMDAHRFYFENLLAKNSKPIHTTILNPHVHVIGEDAACIAYIRLTQYIDGQGRPRTSQSEETRVWHRPDGKWQNVHFHCSGAPVAPLQ | – | stoichiometry N [2]: 2
CaMKIIβ holoenzyme T287A/T306A/T307A (6His-V15-rCaMKIIβ triple mutant) (enzyme, rat, UniProt P08413 1-542, looked up, rat CaMKII beta, open reading frame codon optimized for bacterial expression, with T287A, T306A and T307A; Only the association-domain hub is resolved in the cryo-EM maps; also called engineered β holoenzyme; source: E. coli BL21/Rosetta, co-transformed with a protein phosphatase plasmid, purified (nickel Hi-Trap); not shown: Venus, N-terminal, kept) MATTVTCTRFTDEYQLYEDIGKGAFSVVRRCVKLCTGHEYAAKIINTKKLSARDHQKLEREARICRLLKHSNIVRLHDSISEEGFHYLVFDLVTGGELFEDIVAREYYSEADASHCIQQILEAVLHCHQMGVVHRDLKPENLLLASKCKGAAVKLADFGLAIEVQGDQQAWFGFAGTPGYLSPEVLRKEAYGKPVDIWACGVILYILLVGYPPFWDEDQHKLYQQIKAGAYDFPSPEWDTVTPEAKNLINQMLTINPAKRITAHEALKHPWVCQRSTVASMMHRQEAVECLKKFNARRKLKGAILAAMLATRNFSVGRQTTAPATMSTAASGTTMGLVEQAKSLLNKKADGVKPQTNSTKNSSAITSPKGSLPPAALEPQTTVIHNPVDGIKESSDSTNTTIEDEDAKARKQEIIKTTEQLIEAVNNGDFEAYAKICDPGLTSFEPEALGNLVEGMDFHRFYFENLLAKNSKPIHTTILNPHVHVIGEDAACIAYIRLTQYIDGQGRPRTSQSEETRVWHRPDGKWQNVHFHCSGAPVAPLQ | – | stoichiometry N [3]: 14 and 12
CaMKIIα hub (6His-V15-mCaMKIIα hub construct: Venus tag, 15-amino-acid linker, α association domain) (domain or fragment, CaMKII alpha association domain (AD); made from the holoenzyme construct by removal of the kinase domain; The plasmid is named mCaMKIIα, but the introduction speaks of rat α hubs; also called isolated α hub; CaMKIIα AD hub; source: E. coli BL21/Rosetta, co-transformed with a protein phosphatase plasmid, purified (nickel Hi-Trap); not shown: Venus, N-terminal, kept) VRKQEIIKVTEQLIEAISNGDFESYTKMCDPGMTAFEPEALGNLVEGLDFHRFYFENLWSRNSKPVHTTILNPHIHLMGDESACIAYIRITQYLDAGGIPRTAQSEETRVWHRRDGKWQIVHFHRSGAPSVLPH | 12 and 14 | –
